Reference: publication PMC10397247

T1: 4H87-AA
T1 chain: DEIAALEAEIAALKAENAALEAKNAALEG

T2: 4H775-AA
T2 chain: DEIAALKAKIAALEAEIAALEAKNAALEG

T3: 4H816-AA
T3 chain: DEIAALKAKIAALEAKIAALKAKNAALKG

T4: 4H656-AA
T4 chain: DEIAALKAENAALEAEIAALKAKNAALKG

T5: 4H391-AA
T5 chain: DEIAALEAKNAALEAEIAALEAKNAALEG

T6: 4H3591-AA
T6 chain: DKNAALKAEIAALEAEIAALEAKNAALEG

T7: 4H428-AA
T7 chain: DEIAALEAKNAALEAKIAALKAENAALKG

T8: 4H3666-AA
T8 chain: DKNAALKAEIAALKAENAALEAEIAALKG

T9: 4H3709-AA
T9 chain: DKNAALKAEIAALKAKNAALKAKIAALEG

T10: 4H3939-AA
T10 chain: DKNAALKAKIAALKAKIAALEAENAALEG

T11: 4H3628-AA
T11 chain: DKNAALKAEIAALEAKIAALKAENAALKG

T12: 4H497-AA
T12 chain: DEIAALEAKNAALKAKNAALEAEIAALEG

T13: 4H971-AA
T13 chain: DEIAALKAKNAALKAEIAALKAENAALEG

T14: 4H3417-AA
T14 chain: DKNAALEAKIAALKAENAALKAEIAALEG

T15: 4H3446-AA
T15 chain: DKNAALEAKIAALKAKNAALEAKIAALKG

T16: 4H675-AA
T16 chain: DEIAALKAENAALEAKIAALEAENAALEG

T17: 4H478-AA
T17 chain: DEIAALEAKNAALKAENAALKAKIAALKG

T18: 4H3920-AA
T18 chain: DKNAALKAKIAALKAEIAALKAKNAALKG


How the values were obtained:
Experiment in all cases: two-hybrid library CCmax;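 also: natural log of median RNA to DNA barcode read ratio; higher means stronger binding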
4H87-AA = target: T1, 4H87-AA; conditions: mean of both orientations
4H775-AA = target: T2, 4H775-AA
4H816-AA = target: T3, 4H816-AA; conditions: mean of both orientations
4H656-AA = target: T4, 4H656-AA; conditions: mean of both orientations
4H391-AA = target: T5, 4H391-AA; conditions: mean of both orientations
4H3591-AA = target: T6, 4H3591-AA; conditions: mean of both orientations
4H428-AA = target: T7, 4H428-AA; conditions: mean of both orientations
4H3666-AA = target: T8, 4H3666-AA; conditions: mean of both orientations
4H3709-AA = target: T9, 4H3709-AA; conditions: mean of both orientations
4H3939-AA = target: T10, 4H3939-AA; conditions: mean of both orientations
4H3628-AA = target: T11, 4H3628-AA; conditions: mean of both orientations
4H497-AA = target: T12, 4H497-AA; conditions: mean of both orientations
4H971-AA = target: T13, 4H971-AA; conditions: mean of both orientations
4H3417-AA = target: T14, 4H3417-AA
4H3446-AA = target: T15, 4H3446-AA; conditions: mean of both orientations
4H675-AA = target: T16, 4H675-AA; conditions: mean of both orientations
4H478-AA = target: T17, 4H478-AA; conditions: mean of both orientations
4H3920-AA = target: T18, 4H3920-AA; conditions: mean of both orientations

interaction score (4H87-AA) | interaction score (4H775-AA) | interaction score (4H816-AA) | interaction score (4H656-AA) | interaction score (4H391-AA) | interaction score (4H3591-AA) | interaction score (4H428-AA) | interaction score (4H3666-AA) | interaction score (4H3709-AA) | interaction score (4H3939-AA) | interaction score (4H3628-AA) | interaction score (4H497-AA) | interaction score (4H971-AA) | interaction score (4H3417-AA) | interaction score (4H3446-AA) | interaction score (4H675-AA) | interaction score (4H478-AA) | interaction score (4H3920-AA) | Binder
-1.7 | 1.62 | 1.66 |  |  |  |  |  |  |  |  |  |  |  |  |  |  |  | DEIAALKAKIAALEAEIAALEAKNAALEG [4H775-AA]
 |  |  | 0.318 | -1.68 | -1.37 | -0.935 | 1.09 | -0.223 | -1.87 | -1.29 | -1.9 | -1.03 | 0.336 | -0.679 | -0.587 | 0.524 | -1.61 | DKNAALEAKIAALKAENAALKAEIAALEG [4H3417-AA]
